# In patent US20230220042A1 (SHANGHAI JIAO TONG UNIVERSITY SCHOOL OF MEDICINE, published 2023):
# Positions count from the first letter of the chain named. Names may count otherwise.
# T1: Biotin-FcγRIIB (human, UniProt P31994 43-217, limits assumed, biotin-labelled)
# T1 construct: Bought, biotin-labelled; used at 1 µg/ml for staining and sorting; also called human FcγRIIB; CD32b
# T1 sequence (looked up): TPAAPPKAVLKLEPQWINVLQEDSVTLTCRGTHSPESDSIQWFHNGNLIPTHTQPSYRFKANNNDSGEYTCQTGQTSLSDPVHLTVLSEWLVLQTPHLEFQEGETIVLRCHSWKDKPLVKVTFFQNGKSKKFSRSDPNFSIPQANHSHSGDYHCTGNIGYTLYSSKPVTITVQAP
# T2: Biotin-FcγRIIB (human, UniProt P31994 43-217, limits assumed, biotin label)
# T2 construct: Soluble labelled protein used to stain and sort the display cells; also called human FcγRIIB; CD32b
# T2 sequence (looked up): T1 sequence (looked up)
# T3: Biotin-FcγRIIB (human FcγRIIB, Sino Biological) (human, UniProt P31994 43-217, limits assumed, biotin-labeled)
# T3 construct: Used at 1 µg/ml with Streptavidin-APC for flow cytometry and sorting; also called CD32b
# T3 sequence (looked up): T1 sequence (looked up)
# B1: human IgG2 anti-mouse CD40 surface displayed antibody, Fc mutant P271G/P329S (antibody, name in EU numbering)
# light chain (with the P2A rest): DTVLTQSPALAVSPGERVTISCRASDSVSTLMHWYQQKPGQQPKLLIYLASHLESGVPARFSGSGSGTDFTLTIDPVEADDTATYYCQQSWNDPWTFGGGTKLELKRTVAAPSVFIFPPSDEQLKSGTASVVCLLNNFYPREAKVQWKVDNALQSGNSQESVTEQDSKDSTYSLSSTLTLSKADYEKHKVYACEVTHQGLSSPVTKSFNRGECGSGATNFSLLKQAGDVEENPG
# heavy chain: EVQLVESDGGLVQPGRSLKLPCAASGFTFSDYYMAWVRQAPTKGLEWVASISYDGSSTYYRDSVKGRFTISRDNAKSTLYLQMDSLRSEDTATYYCGRHSSYFDYWGQGVMVTVSSASTKGPSVFPLAPCSRSTSESTAALGCLVKDYFPEPVTVSWNSGALTSGVHTFPAVLQSSGLYSLSSVVTVPSSNFGTQTYTCNVDHKPSNTKVDKTVERKCCVECPPCPAPPVAGPSVFLFPPKPKDTLMISRTPEVTCVVVDVSHEDGEVQFNWYVDGVEVHNAKTKPREEQFNSTFRVVSVLTVVHQDWLNGKEYKCKVSNKGLSAPIEKTISKTKGQPREPQVYTLPPSREEMTKNQVSLTCLVKGFYPSDIAVEWESNGQPENNYKTTPPMLDSDGSFFLYSKLTVDKSRWQQGNVFSCSVMHEALHNHYTQKSLSLSPGKLEPPPSTVSNMATVAVLVVLGAAIVTGAVVAFVMKMRRRNTGGKGGDYALAPGSQTSDLSLPDCKVMVHDPHSLA
# notes: as m1; positions are Eu numbers; copies: 2 + 2
# B2: human IgG2 anti-mouse CD40 surface displayed antibody, S267E/S298G (antibody, name in EU numbering)
# light chain (with the P2A rest): B1 light chain (with the P2A rest)
# heavy chain: B1 heavy chain with S262E, G266P, S293G, S324P
# notes: As m1 with the Fc mutations
# B3: human IgG2 anti-mouse CD40 surface displayed antibody, P233G/S267E (antibody)
# light chain (with the P2A rest): B1 light chain (with the P2A rest)
# heavy: B1 heavy chain with P229G, S262E, G266P, S324P
# notes: As m1 with the Fc mutations; copies: 2 + 2
# B4: human IgG2 anti-mouse CD40 surface displayed antibody, L328W (antibody, name in EU numbering)
# light chain (with the P2A rest): B1 light chain (with the P2A rest)
# heavy chain: B1 heavy chain with G266P, L323W, S324P
# notes: As m1 with the Fc mutation
# B5: human IgG2 anti-mouse CD40 surface displayed antibody, S267E/A330S (antibody, name in EU numbering)
# light chain (with the P2A rest): B1 light chain (with the P2A rest)
# heavy chain: B1 heavy chain with S262E, G266P, S324P, A325S
# notes: As m1 with the Fc mutations
# B6: human IgG2 anti-mouse CD40 surface displayed antibody, P233G/S267E/S298G (antibody)
# light chain (with the P2A rest): B1 light chain (with the P2A rest)
# heavy: B1 heavy chain with P229G, S262E, G266P, S293G, S324P
# notes: as for B3
# B7: human IgG2 anti-mouse CD40 surface displayed antibody, G327A (antibody, name in EU numbering)
# light chain (with the P2A rest): B1 light chain (with the P2A rest)
# heavy chain: B1 heavy chain with G266P, G322A, S324P
# notes: m1 with this Fc mutation (Eu numbering); copies: 2 + 2
# B8: human IgG2 anti-mouse CD40 surface displayed antibody, L328W (antibody, name in EU numbering)
# light chain (with the P2A rest): B1 light chain (with the P2A rest)
# heavy chain: B1 heavy chain with G266P, L323W, S324P
# notes: m1 with this Fc mutation (Eu numbering); Not the anti-human OX40 antibody Mut_1, which carries the same Fc mutation; copies: 2 + 2
# B9: human IgG2 anti-mouse CD40 surface displayed antibody, L328Y (antibody, name in EU numbering)
# light chain (with the P2A rest): B1 light chain (with the P2A rest)
# heavy chain: B1 heavy chain with G266P, L323Y, S324P
# notes: as for B7
# B10: human IgG2 anti-mouse CD40 surface displayed antibody, G327A/A330R (antibody, name in EU numbering)
# light chain (with the P2A rest): B1 light chain (with the P2A rest)
# heavy chain: B1 heavy chain with G266P, G322A, S324P, A325R
# notes: m1 with these Fc mutations (Eu numbering); copies: 2 + 2
# B11: human IgG2 anti-mouse CD40 surface displayed antibody, L328E/I332T (antibody, name in EU numbering)
# light chain (with the P2A rest): B1 light chain (with the P2A rest)
# heavy chain: B1 heavy chain with G266P, L323E, S324P, I327T
# notes: as for B10
# B12: human IgG2 anti-mouse CD40 surface displayed antibody, G327A/A330V (antibody, name in EU numbering)
# light chain (with the P2A rest): B1 light chain (with the P2A rest)
# heavy chain: B1 heavy chain with G266P, G322A, S324P, A325V
# notes: as for B10
# B13: human IgG2 anti-mouse CD40 surface displayed antibody, G327A/I332E (antibody, name in EU numbering)
# light chain (with the P2A rest): B1 light chain (with the P2A rest)
# heavy chain: B1 heavy chain with G266P, G322A, S324P, I327E
# notes: as for B10
# B14: human IgG2 anti-mouse CD40 surface displayed antibody, G327A/I332C (antibody, name in EU numbering)
# light chain (with the P2A rest): B1 light chain (with the P2A rest)
# heavy chain: B1 heavy chain with G266P, G322A, S324P, I327C
# notes: as for B10
# B15: human IgG2 anti-mouse CD40 surface displayed antibody, L328F (antibody, name in EU numbering)
# light chain (with the P2A rest): B1 light chain (with the P2A rest)
# heavy chain: B1 heavy chain with G266P, L323F, S324P
# notes: as for B7
# B16: human IgG2 anti-mouse CD40 surface displayed antibody, G327A/I332A (antibody, name in EU numbering)
# light chain (with the P2A rest): B1 light chain (with the P2A rest)
# heavy chain: B1 heavy chain with G266P, G322A, S324P, I327A
# notes: as for B10
# Molecular target: Biotin-FcγRIIB (human) (UniProt P31994)
# Test: NGS of 3T3 display library Cmix flow-sorted for FcγRIIB binding
Molecule,"enrichment factor, percentage after 1st sorting/percentage before sorting","enrichment factor, percentage after 2nd sorting/percentage after 1st sorting","enrichment factor, percentage after 3rd sorting/percentage after 2nd sorting","enrichment factor, percentage after 3rd sorting/percentage before sorting","increased factor, mutant enrichment factor/wild-type enrichment factor",percentage after 1st sorting,percentage after 2nd sorting,percentage after 3rd sorting,percentage before sorting
"human IgG2 anti-mouse CD40 surface displayed antibody, V234M/S267E/S298G/I332L",16.5,64.4,0.66,695,1850,0.01%,0.46%,0.3%,0%
"human IgG2 anti-mouse CD40 surface displayed antibody, A235W/V266L/S298L/L328W",,70.1,4.67,,,0%,0.05%,0.22%,
"human IgG2 anti-mouse CD40 surface displayed antibody, P233F/V266L/S298L/L328W",,94.7,1.79,,,0%,0.16%,0.29%,
"human IgG2 anti-mouse CD40 surface displayed antibody, V234M/S267E/S298L/L328W",,,5.13,,,,0.1%,0.53%,

# Molecular target: T1, Biotin-FcγRIIB
# Test: FACS sorting of displayed Fc library on biotin-FcγRIIB, NGS
Molecule,Enrichment factor (after/before sorting),Increased factor a (enrichment factor/wild-type enrichment factor)
B1,46.2,61.8

# Molecular target: T2, Biotin-FcγRIIB
# Test: NGS of 3T3 display library IgG2_C01 flow-sorted for FcγRIIB binding
# Source text: Then flow cytometry is used for sorting the cells with high affinity to FcγRIIB for two to three rounds. […] IgG2_C01 is a combined mutation (Type I) library having at most 1 mutation in each of the four regions of P233-V240, V266-P271, S298-T299, and G327-I332; IgG2_C02 is a cell library made by combining the combined mutation (Type II) libraries of four regions of P233-V240, V266-P271, S298-T299 and G327-I332 together and transferring it into 3T3 cells.
Molecule,"enrichment factor, percentage after 1st sorting/percentage before sorting","enrichment factor, percentage after 2nd sorting/percentage after 1st sorting","enrichment factor, percentage after 2nd sorting/percentage before sorting","increased factor, mutant enrichment factor/wild-type enrichment factor",percentage after 1st sorting,percentage after 2nd sorting
B2,9.16 ratio,19.2 ratio,176 ratio,207 ratio,0.01%,0.25%
B3,3.31 ratio,5.47 ratio,18.1 ratio,21.3 ratio,0.01%,0.05%
B4,1.75 ratio,4.26 ratio,7.46 ratio,8.78 ratio,0.25%,1.05%
B5,,43.1 ratio,,,0%,0.03%
B6,7.13 ratio,38.5 ratio,274 ratio,323 ratio,0.01%,0.2%

# Molecular target: T1, Biotin-FcγRIIB
# Test: FACS sorting of displayed Fc library on biotin-FcγRIIB, NGS; reference P271G
row,Molecule,Increased factor 2 c Site 1 (combined/point mutation)
1,B1,13.1

# Molecular target: T3, Biotin-FcγRIIB (human FcγRIIB, Sino …)
# Test: NGS after FACS sort of 3T3-displayed Library4 for biotin-FcγRIIB binding
Molecule,Enrichment factor (percentage after sorting/percentage before sorting),Increased factor (enrichment factor/wild-type enrichment factor)
B7,5.05,3.38
B8,33.2,22.2
B9,3.38,2.26
B10,98.3,65.8
B11,55.1,36.9
B12,6.98,4.67
B13,126,84.1
B14,11.4,7.64
B15,563,377
B16,29.2,19.5
